Results on 41 sequences are retold here after the supplement of paper PMC12764529.

The data set is described as follows: folding stability dG unfold (combined trypsin and chymotrypsin); higher = more stable. How it is done:
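Folding stability of de novo designed mini-proteins (<80 aa, no Cys; designed by TrROS, TrMRF, ProteinMPNN and the joint model) was measured by cDNA display proteolysis with trypsin and chymotrypsin. Each protease was used at 11 concentrations in a threefold dilution series plus a no-protease condition. K50 was inferred by Bayesian fitting of sequencing counts, and dG unfold was derived against a sequence-predicted unfolded-state K50 (Tsuboyama et al. method). Sequences shown include variable-length N-terminal GS-type padding (SAGGSAGG...) inside a display construct carrying a PA tag. Rows were kept only if the AF2 dimer inter-PAE was >15, to exclude likely homo-oligomers.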
Take “SAGGSAGGSAPKLKFETEPYPNGGYYHKVKIDLEGPKIPITIPVNNNQPMPIEDFAKHILKKSAGGSAGGSA [r18_111_TrROS]”: the “folding stability dG unfold” value is less than -1 kcal/mol.

Consider “SAGGSAGGSAPMRMIPFRLPAPPGETIEIKFPNGKKHNISVEPHPDGWFHIMVNGGMIWIPASAGGSAGGSA [r18_372_TrROS]”, for which the “folding stability dG unfold” value was less than -1 kcal/mol. For the sequence “SAGGSAGGSAPQRFNIVLEVKEPETGKTKVVKRTLSSEEEALKKIPEGLEVKKITVLPPDVPLSAGGSAGGS [r12_208_JUSTAS]”, the “folding stability dG unfold” value was less than -1 kcal/mol. As to “SAGGSAGGSARDALKNIKHVEIEHNPPNNRGTIRIQPPNGKQIKFEFDSPNELLKKAGIEPSAGGSAGGSAG [r3_36_TrROS]”, the “folding stability dG unfold” value is less than -1 kcal/mol. The value for “SAGGSAGGSASEIDELLAAGYTVLVKPPDGSEKVIKPGDTASNLDETFNLSPDAEFVIEPKSAGGSAGGSAG [r3_216_JUSTAS]” was less than -1 kcal/mol; that for “SAGGSAGGSASMKIAKEVRTDPNSDVTYRVEVYRLPGPNVLLVETTYPEGVELSLVEVDPPSAGGSAGGSAG [r3_123_JUSTAS]” was less than -1 kcal/mol; that for “SAGGSAGGSATPTPGDDYVYLTEESPDGRTIRYPETGSTIYIPADVPVNLKVNPVRGPDGVPESAGGSAGGS [r20_105_JUSTAS]” was less than -1 kcal/mol. For “SAGGSAGGSAVLRSALDRPVPVLLLTVPRDEVPEEEIRSLLPPELAEQFLKTAPKDSVIVASAGGSAGGSAG [r3_326_TrMRF]”, the “folding stability dG unfold” value was less than -1 kcal/mol. With “SAGGSAGGSAYKLKDITMRRMPNGYHEVEIKVDNGKKIDVTIPPDNPGRSIEEFAKEVLDNSAGGSAGGSAG [r3_368_TrROS]”, the “folding stability dG unfold” value is less than -1 kcal/mol. The value for “SAGGSAGGSFEVEPTPDHVSIRYYNPDGNPPVSATVDPPEGDIDFEHPDKKQEFPLKPGDTLISAGGSAGGS [r12_536_TrROS]” was less than -1 kcal/mol; that for “SAGGSAGGSGKKYMIDSPEAMNDMRDAGIPPKKIEPEPYPIPANDNPGFKDMPWPMTMYRVKVSAGGSAGGS [r12_78_TrROS]” was less than -1 kcal/mol; that for “SAGGSAGGSGSMNISPNVKKFTIKSTGTEEKAKEEAEKIKNSLPKNVPIEITFEPLDPKEFKKSAGGSAGGS [r12_744_JUSTAS]” was less than -1 kcal/mol.

With “SAGGSAGGSKLPDGPYKIRMPHNGRPYEMPIRVTSDGMIEVRMPGEGKKRTFPLNQAEIEPLDSAGGSAGGS [r12_782_TrROS]”, the “folding stability dG unfold” value was less than -1 kcal/mol. The result for “SAGGSAGGSKMTVRIDEVHTHKHDGRRYLSVPLRFPDNGKPIDFHIPPDDLKNLKPGEEITIESAGGSAGGS [r12_382_TrROS]” reads less than -1 kcal/mol; that for “SAGGSAGGSMPVTRPVATLPGPVTLYETTSPGERRLVRVTETPLPTPEPRTEVRLTVEVRPVGSAGGSAGGS [r12_353_JUSTAS]”, less than -1 kcal/mol. The result for “SAGGSAGGSMVVTTTEFDLNGVKATLSIDDTGSATAKIPDPSYKEDVLKLIPSSFSLTSFDAESAGGSAGGS [r12_9_JUSTAS]” reads less than -1 kcal/mol; that for “SAGGSAGGSNPDNNFPPRPKEPIKFPGEGMKIWVYKNHGHIFMEPPPGERQMGTIDPEDGKIVSAGGSAGGS [r12_420_TrROS]”, less than -1 kcal/mol.

As for “SAGGSAGGSPGNIPINIKIEPYDPDGGEKRKRTIPFPFQDPEGARRHLNKIADEFPPGWRVEISAGGSAGGS [r20_211_TrROS]”, the “folding stability dG unfold” value was less than -1 kcal/mol. For “SAGGSAGGSQKITIEWHKPGAWRIRIPGNGRERHLPMDKPLEEIANTAEKKFPNIPVEIERVKSAGGSAGGS [r12_423_TrROS]”, the “folding stability dG unfold” value is less than -1 kcal/mol.

For the sequence “SAGGSAGGSRTFRSPSGVRYTETSSVLETSPDPENGLWSTVTSSVVSVDPGPPAPPPPLSPALVSAGGSAGG [r6_939_JUSTAS]”, the “folding stability dG unfold” value is less than -1 kcal/mol.

Consider “SAGGSAGGSSEKEEKIRNIIKENFPENVIKKVEFNNDIVKIYGIPEYVKKAKEKLGSKNFIENSAGGSAGGS [r12_748_TrMRF]”, for which the “folding stability dG unfold” value is less than -1 kcal/mol.

Take “SAGGSAGGSSQEIQKRIQDRLRPRGPNRKPTPLEFTPKNGTITIKWKNPWHRKALKELPGIEPSAGGSAGGS [r12_623_TrROS]”: the “folding stability dG unfold” value was less than -1 kcal/mol. The result for “SAGGSAGGSTVPQSLPDSTATISSGPGGTWTVTFYPDEGSRTLTLPRSVVDASPVPLTELVSSSAGGSAGGS [r20_90_JUSTAS]” reads less than -1 kcal/mol; that for “SAGGSAGGSVIEKDPDDTILLKLEIPEEGKESLVTLPKDEVEKVIEEKGVKKLTALKLGEPKPSAGGSAGGS [r12_294_JUSTAS]”, less than -1 kcal/mol; that for “SAGGSAMKDFADAPGITDIHPYPDGTISIHFKSSPNARDKIVEALRKEGNIDIKTHPDHGMIRIKVSAGGSA [r15_554_TrROS]”, less than -1 kcal/mol. For the sequence “SAGGSAPPKIDIDVEPNPEEGYYRVTVEFPDGWPLKIPYPYPDPEDNKRNAKKHVKWILKKHEELLSAGGSA [r15_477_TrROS]”, the “folding stability dG unfold” value is less than -1 kcal/mol. In the case of “SAGGSARWMEYQIPFKSPQKREKLKEALMEHPGISEVDWPPNGTINITIPRDNPNRIKKAAKKAGFSAGGSA [r15_834_TrROS]”, the “folding stability dG unfold” value is less than -1 kcal/mol. For the sequence “SAGGSASSIPPGKILSKKEFEVELPDGKKLKITILEVPGPTLALTEEPGEKKPKTYKVEELKKLLESAGGSA [r15_329_JUSTAS]”, the “folding stability dG unfold” value was less than -1 kcal/mol. The result for “SAGGSATITLKPGEKVEITVTITVTEYKYDKNGKLVEKKTYKITVKATFTVDEDGNIHVEIKIEIESAGGSA [r2_154_TrROS_Hall]” reads more than 6 kcal/mol; that for “SAGGSEEEKAAKEAAEKELPPAEPKPVLTPDGVVTTYYPVTGAVEVTRYERDAAGVPVKVSSTTDPKSAGGS [r16_243_JUSTAS]”, less than -1 kcal/mol; that for “SAGGSGMAEAEALAAELAAATEKTPLGRTATVSVDTEVRPETGLTLLTVTTTGPGAPTTTPTTLPGRSAGGS [r16_812_JUSTAS]”, less than -1 kcal/mol. The result for “SAGGSGMNITVEPVLSPDGTLTVTTTDPATGKTVSTTTTPVPRGPLPPPVRPLLGLDDRNGRPLLLSAGGSA [r2_78_JUSTAS]” reads less than -1 kcal/mol; that for “SAGGSLEEIADELAQKPGFDEVKIDVWKPPNGNFMLSVHNKENNRELQIPLPPNWKPVGTYELPVKSAGGSA [r2_74_TrROS]”, less than -1 kcal/mol. The result for “SAGGSMITKETFPGSEVLTYPEKGIRVELDDKNVTVYDIKPLPGKGEPVVLSSKTISKEELEKLIKSSAGGS [r8_174_JUSTAS]” reads less than -1 kcal/mol. Consider “SAGGSMTPAELANEIAEKLHEELPPDKSVTITMRFGSGPVTLTIPPDARVDVPEDRPLEVDEISIGSAGGSA [r2_391_JUSTAS]”, for which the “folding stability dG unfold” value was less than -1 kcal/mol. The value for “SAGGSMTVKEFTDPEEVEKAVEEMDSNEVAVMPVPERPVERVFTKINDKVIRETINGETVTTEELLSAGGSA [r2_280_JUSTAS]” was less than -1 kcal/mol; that for “SAGGSPVLVPLEREETDPARGTRTRTRAYRLPERDIALVEREEIPFAPDGTPLRRTSEEVVSLEELLESAGG [r13_807_JUSTAS]” was less than -1 kcal/mol. The result for “SAGGSWIEKLPPDYTILLEKPDGTPFTRKIPANASEEEVLALNPPGSSKIELVSLDPSGRAVWRTPGSAGGS [r16_103_JUSTAS]” reads less than -1 kcal/mol. The result for “SAGGTIKEIFEKNGAEIETNPGQGVVTVEMRKPKRDDNGMPKPKPKGKHEIKVPGGDPEQALDNLLKHSAGG [r13_924_TrROS]” reads less than -1 kcal/mol. Turning to “SAGGVDLSTLPSNSTVTLTEEKVIPVTKGSPKGSGKGYIETTTTTYTAVPPTGTWLSTTTPSISIIESAGGS [r8_486_JUSTAS]”, the “folding stability dG unfold” value is less than -1 kcal/mol. The value for “SAGGVSIEKDVTSSDELLAALPPDRPVRIEYTPPDGSSRELEVDPADLSLDIPAGVKYKVRIEVLPPESAGG [r13_461_JUSTAS]” was less than -1 kcal/mol.
